“Also recorded” adds a separate entry of the source.
Tests used:
Type in all cases: physicochemical
[1] = Liquid-liquid phase separation by optical microscopy; details: for ability to undergo LLPS / phase separation: various pH and salt (NaCl) concentration; for morphology of the separated phase: optical micrographs after LLPS; for range of conditions allowing LLPS: compared among variants; for highest pH at which LLPS was observed: N-variants, high salt; for minimal peptide concentration for LLPS at the highest pH: V7-N at pH 8, V6-N at pH 7, high salt
Method: In Example 2 below, phase separation behavior of protein variants and peptides was studied using a Zeiss Axio Scope A1 microscope (Carl Zeiss Pte Ltd., Germany) in the reflection mode, with differential interference contrast (DIC) filters. Images were taken with an AxioCam MRc 5 camera under the control of AxioVision software.
Liquid-liquid phase separation properties of protein variants and peptides at different buffer conditions were assessed using the method described in (Tan et al, Nat. Chem. Biol. 11, 488-495). Briefly, protein/peptide stock solution (10 mg/mL in 10 mM acetic acid, pH 3.3) was added to a buffer solution in a volume ratio 1:5 (protein/peptide stock:buffer). The mixture was then pipetted onto a microscopy glass slide and imaged using the optical microscope.

[2] = Dynamic light scattering of GY-23 peptide
Method: FIGS. 30A-30C. SAXS and DLS of GY-23 peptide. (A) SAXS experimental curves of the peptide before and after coacervation. After LLPS, the dilute and coacervate-rich phases were measured following centrifugation. The q-3 power-law region of the scattering data is highlighted, with the black line a guide for the eye. The calculated fit for the peptide assemblies from the IFT method is also presented as a continuous red line. (B) Corresponding p(r) profile calculated from the SAXS data in (A) using Eq. 1 (materials and methods). (C) Hydrodynamic diameter (DH) measured by DLS of GY-23 in acetic acid (pH 3.3) and after coacervation (pH 7.0).
FIGS. 34A-34B Correlation functions of the DLS measurements of GY-23 peptide before and after coacervation (FIG. 33C) showing the intensity correlation function, C(τ) vs. the correlation time, τ. (A) Sample before coacervation (10 mM in acetic acid, pH 3.3). The curve with a single decay at short correlation times represents a monomodal distribution of rather small particles in the nanometer range. (B) Sample after LLPS (coacervation buffer, pH 7.0).

[3] = Circular dichroism spectroscopy of insulin
Source text: Circular dichroism (CD) spectra was collected using a quartz cuvette of 0.2/0.5 mm optical pathlength. Data collection was done on AVIV 420 Circular Dichroism spectrometer with the following parameters: average of three scans per experiment between wavelength range from 190 to 250 nm, 1.0 nm wavelength steps with 1.00 nm bandwidth and 0.1 s averaging time. Each experiment was repeated for 3 times and averaged to obtain the final spectrum. The final spectrum was then smoothed and plotted using originPro9.1.

Molecule	ability to undergo LLPS / phase separation [1]	morphology of the separated phase [1]	further results
GH-25: synthetic peptide of HBP-1 repeats harboring only one GHGLY motif (GHGLHGAGFAGHGLYGAGFAGHGLH; HBP-1 derived peptide GH-25)	remained in solution in all tested buffer conditions	–	–
GHGLY [pentapeptide]	no phase separation was observed	–	–
GAGFA [pentapeptide]	no phase separation was observed	–	–
GA-25: synthetic peptide of HBP-1 repeats harboring only one GHGLY motif (GAGFAGHGLHGAGFAGHGLYGAGFA; HBP-1 derived peptide GA-25)	remained in solution in all tested buffer conditions	–	–
GHGLYGAGFAGAGFAGAGFAGHGLY (GHGLYGAGFAGAGFAGAGFAGHGLY) [GY-25-V1]	–	dense and compact hydrogel	–
V3-C: C-terminus fragment of DgHBP-1 Lys mutant after trypsin cleavage, longest section of repetitive region (GHGLHGAGFAGHGLYGAGFAGHGLHGFAGHGLYGAGFAGHGLGLGGLHGALGHGALAHY; HBP-1 derived peptide V3-C)	–	–	range of conditions allowing LLPS [1]: broadest pH range among all tested variants; lowest protein concentration of phase separation ([1]; pH 8): 30 µM
GHGLY GAGFA GHGLH GFA GHGLY (GHGLYGAGFAGHGLHGFAGHGLY) [GY-23]	phase-separated	coacervate micro-droplets suspended in solution as well as a dense hydrogel-like structure; also recorded: micro-droplets as well as hydrogel-like condensed coacervates	hydrodynamic diameter (DH) ([2]; acetic acid (pH 3.3), before LLPS): ca. 8 nm; hydrodynamic diameter (DH) ([2]; pH 7.0, initiation of LLPS): around 50 nm
GHGLYGHGLHGHGLHGHGLHGHGLY (GHGLYGHGLHGHGLHGHGLHGHGLY) [GY-25-V2]	–	only formed micro-droplets	–
GHGLY GHGLY GHGLY GHGLY (GHGLYGHGLYGHGLYGHGLY) [GY-20]	Phase separation was observed	only formed micro-droplets	–
GY-15-V1: 3 copies of the GHGLY motif arranged in tandem (GHGLYGHGLYGHGLY)	no phase separation was observed	–	–
released insulin: insulin released from dissociated coacervates	–	–	CD: characteristic minima of α-helices at 208 and 222 nm ([3]; after coacervation and release): still visible
insulin [reference compound]	–	–	CD: secondary structure ([3]; pH 5.5 to 7.5): not disrupted
GY-15-V2: GAGFA motif flanked by GHGLY (GHGLYGAGFAGHGLY; Artificial peptide GY-15-V2)	no phase separation was observed	–	–
C-terminal (A82-R172): DgHBP-2 C-terminal trypsin fragment containing the whole repetitive region (protein, C-terminal fargment of HBP-2, DgHBP-2 C-terminal trypsin fragment containing the whole repetitive region) AAQGANAVHNDAAQSHSALAAANTFGHGHAPYAAYGHGVYGHGPYGHGPYGHGLYGHGLYGHGPYGHGLYGHGAFGHGLNAYAPLVGHGLR	phase-separated into coacervates	–	–
V4-N: N-terminus fragment of DgHBP-1 Lys mutant after trypsin cleavage (protein, HBP-1 derived peptide V4-N, N-terminus fragment of DgHBP-1 Lys mutant after trypsin cleavage) MQLYGAPAVGGVVENAVNAAESGAAATHDAQGAYAEADTAGVLDVNHAEHHDGVHDASGYGFGGLAGHGGFAGHGLYGPGFAGHGLLGAGYAGLGLHK	could not be induced	–	–
V2-C: DgHBP-1 variant lacking the first 31 amino acids of the repetitive region, truncated at G98 (protein, HBP-1 derived peptide V2-C, DgHBP-1 variant lacking the first 31 amino acids of the repetitive region, truncated at G98) MHHHHHHSSGVDLGTENLYFQSMMGAGFAGHGLHGAGFAGHGLYGAGFAGHGLHGFAGHGLYGAGFAGHGLGLGGLHGALGHGALAHY	formed coacervates	–	protein concentration required to form coacervates [1]: ca. 30 μmol; ability to undergo LLPS / phase separation ([1]; listed as V-2C): underwent LLPS in the same way as full-length protein
N-terminal (M1-R81) fragment: DgHBP-2 N-terminal trypsin fragment lacking the modular repeats (protein, N-terminal fragment of HBP-2, DgHBP-2 N-terminal trypsin fragment lacking the modular repeats) MQFFGAGPFNTAHHSAVSDAAAAHHDAAGEYAQNAATGLLDTHHNENHDMTHDLANGYGLHEHDEQHHGLADGLHQEYAAR	only the C-terminal fragment phase-separated	–	–
V7-N: N-terminus fragment of DgHBP-1 Lys mutant after trypsin cleavage (protein, HBP-1 derived peptide V7-N, N-terminus fragment of DgHBP-1 Lys mutant after trypsin cleavage) MQLYGAPAVGGVVENAVNAAESGAAATHDAQGAYAEADTAGVLDVNHAEHHDGVHDASGYGFGGLAGHGGFAGHGLYGPGFAGHGLLGAGYAGLGLHGAGFAGHGLHGAGFAGHGLYGAGFAK	only at high salt concentrations	hydrogels	highest pH at which LLPS was observed [1]: 8; minimal peptide concentration for LLPS at the highest pH [1]: at least 500 μM; range of conditions allowing LLPS [1]: over a wider range of conditions
V6-N: N-terminus fragment of DgHBP-1 Lys mutant after trypsin cleavage (protein, HBP-1 derived peptide V6-N, N-terminus fragment of DgHBP-1 Lys mutant after trypsin cleavage) MQLYGAPAVGGVVENAVNAAESGAAATHDAQGAYAEADTAGVLDVNHAEHHDGVHDASGYGFGGLAGHGGFAGHGLYGPGFAGHGLLGAGYAGLGLHGAGFAGHGLHGAGFAGHGLYK	only at high salt concentrations	hydrogels	highest pH at which LLPS was observed [1]: 7; minimal peptide concentration for LLPS at the highest pH [1]: 400 μM; range of conditions allowing LLPS [1]: over a wider range of conditions
V1-C: DgHBP-1 mutant lacking the first 66 amino acids, containing all C-terminal modular repeats (protein, HBP-1 derived peptide V1-C, DgHBP-1 mutant lacking the first 66 amino acids, containing all C-terminal modular repeats) MHHHHHHSSGVDLGTENLYFQSMMGHGGFAGHGLYGPGFAGHGLLGAGYAGLGLHGAGFAGHGLHGAGFAGHGLYGAGFAGHGLHGFAGHGLYGAGFAGHGLGLGGLHGALGHGALAHY	underwent phase separation and formed coacervates; also recorded: underwent LLPS in the same way as full-length protein	–	–
V3-N: N-terminus fragment of DgHBP-1 Lys mutant after trypsin cleavage (protein, HBP-1 derived peptide V3-N, N-terminus fragment of DgHBP-1 Lys mutant after trypsin cleavage) MQLYGAPAVGGVVENAVNAAESGAAATHDAQGAYAEADTAGVLDVNHAEHHDGVHDASGYGFGGLAGHGGFAGHGLYGPGFAGHGLLGAGYAGLGLHGAGFAK	could not be induced	–	–
V5-N: N-terminus fragment of DgHBP-1 Lys mutant after trypsin cleavage (protein, HBP-1 derived peptide V5-N, N-terminus fragment of DgHBP-1 Lys mutant after trypsin cleavage) MQLYGAPAVGGVVENAVNAAESGAAATHDAQGAYAEADTAGVLDVNHAEHHDGVHDASGYGFGGLAGHGGFAGHGLYGPGFAGHGLLGAGYAGLGLHGAGFAGHGLHGAGFAK	only at high salt concentrations	hydrogels	highest pH at which LLPS was observed [1]: ≤ 6; range of conditions allowing LLPS [1]: only under narrow conditions
DgHBP-1: recombinant histidine-rich beak protein 1 of Humboldt squid (Dosidicus gigas) (protein, Dosidicus gigas) QLYGAPAVGGVVENAVNAAESGAAATHDAQGAYAEADTAGVLDVNHAEHHDGVHDASGYGFGGLAGHGGFAGHGLYGPGFAGHGLLGAGYAGLGLHGAGFAGHGLHGAGFAGHGLYGAGFAGHGLHGFAGHGLYGAGFAGHGLGLGGLHGALGHGALAHY	–	–	pH range of LLPS ([1]; at minimal concentration): 6.5-7.5; minimal concentration for LLPS ([1]; pH range 6.5-7.5): 20 to 30 µM

From US11179342B2, “Peptide coacervates and methods of use thereof” (NANYANG TECHNOLOGICAL UNIVERSITY, priority 2018, dated 2021)
